Where “and” joins values, the source holds several entries; their conditions need not be identical. Equal entries are not always repeated. Each block holds one binder with its values, some of them ahead of it.
Legend:
CYP1A2 = biological target: T1, CYP1A2 (Oryctolagus cuniculus, UniProt P00187); assay: enzyme activity titration
T1 chain: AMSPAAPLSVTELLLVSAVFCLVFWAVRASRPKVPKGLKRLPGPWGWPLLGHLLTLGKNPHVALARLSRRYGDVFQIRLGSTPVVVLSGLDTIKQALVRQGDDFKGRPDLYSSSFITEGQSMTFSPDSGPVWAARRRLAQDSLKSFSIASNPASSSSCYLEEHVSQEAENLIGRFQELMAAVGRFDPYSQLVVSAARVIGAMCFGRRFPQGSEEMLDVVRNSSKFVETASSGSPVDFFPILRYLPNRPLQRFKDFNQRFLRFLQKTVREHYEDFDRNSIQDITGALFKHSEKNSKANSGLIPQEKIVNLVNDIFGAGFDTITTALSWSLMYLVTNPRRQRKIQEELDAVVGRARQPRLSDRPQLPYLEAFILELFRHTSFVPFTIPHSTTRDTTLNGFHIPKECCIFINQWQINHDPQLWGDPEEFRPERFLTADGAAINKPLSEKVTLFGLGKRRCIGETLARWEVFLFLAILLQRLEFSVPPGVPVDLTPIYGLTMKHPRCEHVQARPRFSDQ

cross-linking = biological target: the molecule itself; assay: cross-linking

Kd (CYP1A2): 12 nM
B1: POR (protein)
chain: MADSHGDTGATMPEAAAQEASVFSMTDVVLFSLIVGLITYWFLFRKKKEEVPEFTKIQAPTSSSVKESSFVEKMKKTGRNIVVFYGSQTGTAEEFANRLSKDAHRYGMRGMAADPEEYDLADLSSLPEINNALAVFCMATYGEGDPTDNAQDFYDWLQETDVDLSGVKYAVFGLGNKTYEHFNAMGKYVDQRLEQLGAQRIFELGMGDDDANLEEDFITWREQFWPAVCEHFGVEATGEESSIRQYELVLHTDIDVAKVYQGEMGRLKSYENQKPPFDAKNPFLATVTTNRKLNQGTERHLMHLELDISDSKIRYESGDHVAVYPANDSALVNQLGEILGADLDVVMSLNNLDEESNKKHPFPCPTSYRTALTYYLDITNPPRTNVLYELAQYAADPAEQEQLRKMASSSGEGKELYLSWVVEARRHILAILQDYPSLRPPIDHLCELLPRLQARYYSIASSSKVHPNSVHICAVAVEYETKAGRLNKGVATSWLRAKEPAGENGGRALVPMFVRKSQFRLPFKATTPVIMVGPGTGVAPFIGFIQERAWLRQQGKEVGETLLYYGCRRAAEDYLYREELAGFQKDGTLSQLNVAFSREQAQKVYVQHLLRRDKEHLWRLIHEGGAHIYVCGDARNMARDVQNTFYDIVAELGAMEHAQAVDYVKKLMTKGRYSLDVWS

B2: Cytochrome P450 1A2 (CYP1A2), isolated from rabbit liver microsomes (enzyme, UniProt P00187 1-516, looked up)
chain: MAMSPAAPLSVTELLLVSAVFCLVFWAVRASRPKVPKGLKRLPGPWGWPLLGHLLTLGKNPHVALARLSRRYGDVFQIRLGSTPVVVLSGLDTIKQALVRQGDDFKGRPDLYSSSFITEGQSMTFSPDSGPVWAARRRLAQDSLKSFSIASNPASSSSCYLEEHVSQEAENLIGRFQELMAAVGRFDPYSQLVVSAARVIGAMCFGRRFPQGSEEMLDVVRNSSKFVETASSGSPVDFFPILRYLPNRPLQRFKDFNQRFLRFLQKTVREHYEDFDRNSIQDITGALFKHSEKNSKANSGLIPQEKIVNLVNDIFGAGFDTITTALSWSLMYLVTNPRRQRKIQEELDAVVGRARQPRLSDRPQLPYLEAFILELFRHTSFVPFTIPHSTTRDTTLNGFHIPKECCIFINQWQINHDPQLWGDPEEFRPERFLTADGAAINKPLSEKVTLFGLGKRRCIGETLARWEVFLFLAILLQRLEFSVPPGVPVDLTPIYGLTMKHPRCEHVQARPRFSDQ
stoichiometry N (cross-linking): 2 and 4 and 5 and 6

— article PMC3518449 (The Biochemical journal, 2012)
